Measured values published in the RNAGym collection of RNA variant scans (doi:10.1073/pnas.2313332121).

B1: TPR t1 (parent)
chain: GACCAAUCUGCCCUCAGAGCUCGAGAACAUCUUCGGAUGCAGAGGAGGCAGGCUUCGGUGGCGCGAUAGCGCCAACGUCCUCAACCUCCAAUGCAUCCCACCACAUGAUGAUGCCUGAAGAGCCUUGGUUUUUUG

Variants of: B1
Assay: polymerase ribozyme fitness, log enrichment relative to wild type (log ratio); higher = more active; in vitro selection for triplet polymerase activity
Procedure, shortened: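 Frozen incubation at −7 °C formed the core of a single, triplicate in vitro selection round applied to PCR-built, transcribed mutant libraries of each subunit of a heterodimeric triplet polymerase ribozyme. Extended constructs were gel-excised, captured with streptavidin beads and amplified by RT-PCR, and input and output libraries were Illumina-sequenced with a filter of ≥10 input reads and ≥1 read per output. Fitness is the logarithm of genotype enrichment relative to wild-type enrichment, with inverse-variance-weighted replicate averaging, and the logarithm is base 2.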

Row | Variant | polymerase ribozyme fitness (log ratio)
1 | C20A C56A C72G A90G | -4.82
2 | C22U C56G G60A | -5.5
3 | C20A C64U U78C U96A C102G C114A | -6.83
4 | U21A A26G C40G C49A | -3.04
5 | C22U G51A | -4.81
6 | U21C C28U C101G G110C | -5.65
7 | C20A C49A U81A C104U G120C U133A G135U | -2.32
8 | C22A U96G | -4.9
9 | C20A C114A | -2.56
10 | C20U G44U | -2.46
11 | U21A U38A G42A G44A U55G | -2.99
12 | U21A G39U C62A | -2.62
13 | C22G A37C U92C G120C | -4.95
14 | C22G U112A A118U | -1.75
15 | C20U G36C C89G | -3.93
16 | C20G G60A | -3.55
17 | U21C A37C U81A | -3.15
18 | C20U U129A | -2.67
19 | U21G C53U C123G | 0.377
20 | C20A G60A | -2.83
21 | C20G U32A C53G U54C G57U C97G G113A | -6.61
22 | C20G G35U A95C G117U | -4.02
23 | C20A U54A U131G | -3.27
24 | U21C C22G C34A C49A A84G C123U U125G U133C | -4.3

Row | Variant | polymerase ribozyme fitness (log ratio)
25 | C20U U112A | 0.887
26 | C20U U112C | 0.258
27 | C20G C62U | -3.29
28 | C20A G71A U129G | -5.06
29 | C20G A43G | -3.54
30 | C22U C56A C72A A83C U96A | -5.56
31 | C20A U32C C56U G57U G60U C62G | -5.9
32 | C20U C64U C104A G107C G128A | -6.14
33 | C22G G61A C86U C123A | -4.09
34 | C22G G93U | -3.03
35 | U21A G63C | -0.995
36 | U21A G39U | -1.5
37 | C20A G63C | -3.31
38 | C20A G42U G47U C53U | -3.95
39 | C22A G52A | -4.45
40 | C22U G45A A83C | -5.99
41 | C20U A43G U78G U87A C89G | -5.4
42 | C22G G42C | -3.87
43 | C20A C64G C114A | -7.24
44 | C20G G93C | -4.4
45 | U21A C40G U125A | -1.07
46 | C20U G71A | -1.94
47 | C20U A37G C102A | -3.43
48 | C22U C101A G122A | -6.14

Row | Variant | polymerase ribozyme fitness (log ratio)
49 | C20U U33A | -5.51
50 | U21A G57U C85U G120U | -2.48
51 | C20G A37U C62G C70U U112A | -6.02
52 | C22U C72A A100C | -4.76
53 | U21G C31U U78C C85A U112G | -5.44
54 | U21C A27G C123G | -0.817
55 | C22A G63U C101U | -6.16
56 | U21G G60A G63C U78A C115U A119U U130A | -4.71
57 | C20U C62A | -2.35
58 | C20U G39U C89U A119U U130G | -4.97
59 | C22G G35C C64U | -6.13
60 | C20G | -3.76
61 | C20U | -1.26
62 | U21G A84U C114A | -1.88
63 | U21A G45A U59G G71A | -4.25
64 | C22G A43U | -3.99
65 | C20A C89A | -3.94
66 | C20G C40U C124U U126C | -4.35
67 | C22U A105U | -6.8
68 | C22A A27C C56U C114A U125A | -4.58
69 | C20A C123G | -0.867
70 | C22A A41U A90U A121G | -5.71
71 | U21C G39U C56U C101U U112A | -0.219
72 | C22U G39A | -4.66

Row | Variant | polymerase ribozyme fitness (log ratio)
73 | C22A C53A G110C U131A | -5.4
74 | C22G G36C | -3.09
75 | C22A A26U A27U C76U A95G G110A | -6.96
76 | C20U A83G C101A G117U | -5.42
77 | U21C U55G U59G G71U C115G | -4.57
78 | U21C C101A | -0.445
79 | C20A U32G G35C U59G G61A A74C | -4.63
80 | C22G C28U A37U G48A G71A G110C | -5.6
81 | G23A A26G | -4.52
82 | C20A G51C C56A C79U U106A A121U | -7.26
83 | C20U U30A G39C C53U C56U G60C U92C G117U A119G | -6.79
84 | C22G C34U G60U C94A C97U C98G G113U | -6.85
85 | C22A A74G C97U | -4.56
86 | C22U G39A C64U C99U U130C | -6.29
87 | C22U A90U U112G | -7.35
88 | C20G C53G C72U | -3.94
89 | C22A G36A C56U | -5.8
90 | C22A G61A A83G U96A C114A | -5.1
91 | C22G C80U | -4.33
92 | C20G C49A U96G U112G C115G C123A | -7.57
93 | C20A G71U | -2.48
94 | C20U C28A | -3.79
95 | U21G U59A A83U C123U U131C | -0.796
96 | C20A U131A | -3.53

Row | Variant | polymerase ribozyme fitness (log ratio)
97 | U21A C72G A75U C85U | -1.63
98 | C22U C56G U78A | -3.95
99 | U21G A46C C49G | -3.41
100 | U21G G61U G120U C123A | -1.78
101 | C20G U78C U109G | -3.79
102 | C20G G71A A83C | -5.59
103 | C22G C86G G110U A121U | -3.31
104 | C20A A84U A90G C98G U109A A121U | -3.83
105 | C20G C124A | -2.2
106 | U21C A41G G44A C56U C98U U112A | -1.55
107 | C22U A50C C102U C124G | -5.01
108 | U21A C53G U54G U87A | -4.55
109 | C22U A74C C79U A121U | -2.29
110 | C22A C31G G71U U92C G93A C114U | -6.77
111 | C20G C56U C82A G113C | -2.04
112 | C22G A27U C88U A121U | -2.51
113 | U21A C53G C64U U106C | -0.936
114 | C22A C76U | -4.72
115 | C22G G35U A121C U132C | -4.9
116 | C22G C97A | -5.26
117 | C20A U32A C70U G93C | -6.8
118 | C22U C115U | -4.01
119 | C20A C73G | -3.25
120 | C22A G51C C72A | -6.53

Row | Variant | polymerase ribozyme fitness (log ratio)
121 | U21C C70U | -0.476
122 | C20G A83C A100U G120A U130C | -5.79
123 | C20U G77U | -1.15
124 | U21A G60A A90G | -0.182
125 | C20G C76U | -3.75
126 | U21C U54A C64A U78C G93A A111C | -6.03
127 | C22U A91U U112G | -6.06
128 | C20U A95C U129A | -2.94
129 | C20U C28G G69C G110U | -5.16
130 | C22G A83C | -3.33
131 | C20G A50U U78C U96G U112A A118G | -6.42
132 | C20U C62U U92A C97U | -5.74
133 | C20A G58U G71U C89G | -5.13
134 | U21G A66G C73A C94A | -4.63
135 | C20U A50U U78C | -1.87
136 | U21G A37C G44U | -3.59
137 | U21A G117U | -1.55
138 | C20U G61A C124A G135C | 0.689
139 | C20A C53U C72G U126G | -3.99
140 | U21A A27C U78G A84U C114A | -6.87
141 | C20G A26G C64A C70U U78C U112A | -5.93
142 | C22G A29C G110U | -4.24
143 | C22A A26G G39A G63C C99A C115G | -4.89
144 | C20A G36A A84G A118G | -5.67

Row | Variant | polymerase ribozyme fitness (log ratio)
145 | C22A G44C | -4.8
146 | C20A U38A G48A C104A A121U | -6.26
147 | C20G C40U | -2.61
148 | U21C U92G U96G A100C C124G | -5.43
149 | U21G A24G | -2.02
150 | U21G G42A A121G | -3.11
151 | U21C U96G C114U | -1.48
152 | C20G C115U | -4.25
153 | C22A A27G C85G A100C C101U G120C G127A | -6.82
154 | C20U U96A U130G | -4.47
155 | U21C C22A A43C | -4.05
156 | U21C A41U G120A | -0.65
157 | C20U U21C U116C | -2.85
158 | C20A G61A | -2.67
159 | U21C G35C C73G A83C | -5.87
160 | C20U A27C A84U C123A | -5.42
161 | U21A U130A | -0.5
162 | U21A U130G | 0.0378
163 | C22U G65U C72G C124U | -5.7
164 | U21A G60U | -0.289
165 | U21G G23U A27G A83C U112G | -7.42
166 | C20A C34A A41C U109A | -4.4
167 | C22G U38G | -4.45
